What all share (experiment): cell-based or functional assay
Test [1] concerns the target HIV-1 envelope glycoprotein (Env) of isolate MGRM-A-004, clade A (HIV-1).
The target in test [2] is HIV-1 envelope glycoprotein (Env) of isolate 92RW008, clade A (HIV-1).
Test [3] addresses HIV-1 Env of pseudovirus MGRM-AG-013 (clade CRF_AG) (HIV-1).
The target in test [4] is HIV-1 Env of isolate LAVI_C3 (HIV-1).
Test [5] addresses HIV-1 Env of pseudovirus MGRM-G-027 (HIV-1, clade G isolate MGRM-G-027).
Test [6] addresses HIV-1 Env of isolate QH0692.42 (Acute), clade B, on pseudovirus (HIV-1).
Test [7] deals with HIV-1 93IN905 envelope glycoprotein (Env) on pseudovirus (HIV-1).
Test [8] addresses HIV-1 Env of isolate 92UG001 (clade D pseudovirus) (HIV-1).
Test [9] addresses HIV-1 Env of isolate MGRM-D-002 (clade D pseudovirus) (HIV-1).
Test [10] deals with HIV-1 Env of pseudovirus MGRM-G-015 (HIV-1, clade G isolate MGRM-G-015).
For test [11], the target named is HIV-1 envelope glycoprotein (Env) of isolate MGRM-A-006, clade A (HIV-1).
Test [12] addresses HIV-1 Env of isolate MGRM-D-011 (clade D pseudovirus) (HIV-1).
For test [13], the target named is HIV-1 Env of isolate 93MW959 (clade C) (HIV-1 isolate 93MW959).
Test [14] has as its target HIV-1 envelope glycoprotein (Env) of isolate MGRM-A-005, clade A (HIV-1).
The target of test [15] is HIV-1 envelope glycoprotein (Env) of isolate 93RW029, clade A (HIV-1).
In test [16] the target is HIV-1 Env of pseudovirus MGRM-G-028 (HIV-1, clade G isolate MGRM-G-028).
Test [17] concerns the target HIV-1 Env of isolate MGRM-D-014 (clade D pseudovirus) (HIV-1).
The target of test [18] is HIV-1 envelope glycoprotein (Env) of isolate MGRM-A-011, clade A (HIV-1).
The target of test [19] is HIV-1 Env of isolate 92RW021 (clade A pseudovirus) (HIV-1).

Sequence of 1443_C16 (PG16) (TCN-116) (antibody) (VH): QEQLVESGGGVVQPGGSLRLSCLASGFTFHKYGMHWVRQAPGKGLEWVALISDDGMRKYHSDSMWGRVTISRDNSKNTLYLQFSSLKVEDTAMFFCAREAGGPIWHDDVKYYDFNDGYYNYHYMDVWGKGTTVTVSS
Sequence of 1443_C16 (PG16) (TCN-116) (antibody) (VL): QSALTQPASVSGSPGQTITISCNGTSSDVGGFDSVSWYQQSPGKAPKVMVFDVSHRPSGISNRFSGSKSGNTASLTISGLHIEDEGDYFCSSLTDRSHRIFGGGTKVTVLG

Take 1443_C16 (PG16) (TCN-116) (antibody): the IC50 (µg/ml), pseudovirus neutralization in test [1] is 0.04 µg/mL; in test [2] it was 0.002 µg/mL; in test [5], 0.01 µg/mL; in test [6] it was > 50 µg/mL; in test [8] it was > 50 µg/mL; in [9] it was 0.01 µg/mL. Moreover, the IC50 (µg/ml), pseudovirus neutralization was 5.33 µg/mL in test [10]; > 50 µg/mL in test [11]; 0.01 µg/mL in test [12]; 0.007 µg/mL in test [13]; 0.09 µg/mL in [14]; 3.83 µg/mL in test [15]. For the same substance, the IC50 (µg/ml), pseudovirus neutralization in test [16] turned out to be 3.09 µg/mL; in [17], 0.003 µg/mL; in test [18], 0.24 µg/mL; in [19] it was 0.11 µg/mL. The IC50 (in general, the concentration at which inhibition is half-maximal) in test [3] stood at 0.31 µg/mL; in [4], 9.55 µg/mL. In test [7], the IC50, pseudovirus neutralization amounted to 0.102 µg/mL.
For 1495_C14 (PGC14) (antibody), the IC50 (µg/ml), pseudovirus neutralization was > 50 µg/mL in test [1]; 37 µg/mL in test [2]; > 50 µg/mL in [5]; > 50 µg/mL in test [6]; > 50 µg/mL in test [8]; 29 µg/mL in test [9]. Further, the IC50 (µg/ml), pseudovirus neutralization is > 50 µg/mL in test [10]; > 50 µg/mL in test [11]; > 50 µg/mL in test [12]; > 50 µg/mL in [13]; > 50 µg/mL in test [14]; 42 µg/mL in [15]. The IC50 (µg/ml), pseudovirus neutralization in test [16] was > 50 µg/mL; in [17] it was 48 µg/mL; in test [18], > 50 µg/mL; in test [19] it was > 50 µg/mL. For the same substance, the IC50 in test [3] is > 50 µg/mL; in test [4], 12 µg/mL. In addition, the IC50, pseudovirus neutralization in [7] is > 50 µg/mL.
On to b12 (antibody), for which the IC50 (µg/ml), pseudovirus neutralization in test [1] was > 50 µg/mL; in test [2], 9.46 µg/mL; in test [5], > 50 µg/mL; in test [6] it was 0.73 µg/mL; in test [8] it was 1.01 µg/mL; in test [9], > 50 µg/mL. Further, the IC50 (µg/ml), pseudovirus neutralization in test [10] is > 50 µg/mL; in [11], 13.6 µg/mL; in test [12] it was 7.75 µg/mL; in [13] it was > 50 µg/mL; in [14] it was 3.64 µg/mL; in test [15], > 50 µg/mL. Besides, the IC50 (µg/ml), pseudovirus neutralization in test [16] was > 50 µg/mL; in test [17] it was > 50 µg/mL; in test [18], 4.01 µg/mL; in test [19] it was > 50 µg/mL. Besides, the IC50 in [3] was > 50 µg/mL; in test [4] it was 0.94 µg/mL. The same substance had an IC50, pseudovirus neutralization in test [7] of 34.1 µg/mL.

For the origin of these results see patent US20250320281A1.
